The source of these data is publication doi:10.1101/2024.11.26.625568, “Structural and functional insights into activation and regulation of the dynein-dynactin-NuMA complex” (bioRxiv, 2024).

The labels stand for the following.
B1: NuMA 1-1699 (domain or fragment, human, UniProt Q14980 1-1699, looked up)
chain: MTLHATRGAALLSWVNSLHVADPVEAVLQLQDCSIFIKIIDRIHGTEEGQQILKQPVSERLDFVCSFLQKNRKHPSSPECLVSAQKVLEGSELELAKMTMLLLYHSTMSSKSPRDWEQFEYKIQAELAVILKFVLDHEDGLNLNEDLENFLQKAPVPSTCSSTFPEELSPPSHQAKREIRFLELQKVASSSSGNNFLSGSPASPMGDILQTPQFQMRRLKKQLADERSNRDELELELAENRKLLTEKDAQIAMMQQRIDRLALLNEKQAASPLEPKELEELRDKNESLTMRLHETLKQCQDLKTEKSQMDRKINQLSEENGDLSFKLREFASHLQQLQDALNELTEEHSKATQEWLEKQAQLEKELSAALQDKKCLEEKNEILQGKLSQLEEHLSQLQDNPPQEKGEVLGDVLQLETLKQEAATLAANNTQLQARVEMLETERGQQEAKLLAERGHFEEEKQQLSSLITDLQSSISNLSQAKEELEQASQAHGARLTAQVASLTSELTTLNATIQQQDQELAGLKQQAKEKQAQLAQTLQQQEQASQGLRHQVEQLSSSLKQKEQQLKEVAEKQEATRQDHAQQLATAAEEREASLRERDAALKQLEALEKEKAAKLEILQQQLQVANEARDSAQTSVTQAQREKAELSRKVEELQACVETARQEQHEAQAQVAELELQLRSEQQKATEKERVAQEKDQLQEQLQALKESLKVTKGSLEEEKRRAADALEEQQRCISELKAETRSLVEQHKRERKELEEERAGRKGLEARLQQLGEAHQAETEVLRRELAEAMAAQHTAESECEQLVKEVAAWRERYEDSQQEEAQYGAMFQEQLMTLKEECEKARQELQEAKEKVAGIESHSELQISRQQNELAELHANLARALQQVQEKEVRAQKLADDLSTLQEKMAATSKEVARLETLVRKAGEQQETASRELVKEPARAGDRQPEWLEEQQGRQFCSTQAALQAMEREAEQMGNELERLRAALMESQGQQQEERGQQEREVARLTQERGRAQADLALEKAARAELEMRLQNALNEQRVEFATLQEALAHALTEKEGKDQELAKLRGLEAAQIKELEELRQTVKQLKEQLAKKEKEHASGSGAQSEAAGRTEPTGPKLEALRAEVSKLEQQCQKQQEQADSLERSLEAERASRAERDSALETLQGQLEEKAQELGHSQSALASAQRELAAFRTKVQDHSKAEDEWKAQVARGRQEAERKNSLISSLEEEVSILNRQVLEKEGESKELKRLVMAESEKSQKLEERLRLLQAETASNSARAAERSSALREEVQSLREEAEKQRVASENLRQELTSQAERAEELGQELKAWQEKFFQKEQALSTLQLEHTSTQALVSELLPAKHLCQQLQAEQAAAEKRHREELEQSKQAAGGLRAELLRAQRELGELIPLRQKVAEQERTAQQLRAEKASYAEQLSMLKKAHGLLAEENRGLGERANLGRQFLEVELDQAREKYVQELAAVRADAETRLAEVQREAQSTARELEVMTAKYEGAKVKVLEERQRFQEERQKLTAQVEQLEVFQREQTKQVEELSKKLADSDQASKVQQQKLKAVQAQGGESQQEAQRLQAQLNELQAQLSQKEQAAEHYKLQMEKAKTHYDAKKQQNQELQEQLRSLEQLQKENKELRAEAERLGHELQQAGLKTKEAEQTCRHLTAQVRSLEAQVAHADQQLRDLGK
modifications: LD555 dye on the SNAP tag
notes: NuMA (nuclear mitotic apparatus protein), human, a.a; 1-1699; also called NuMA N-terminal construct; source: SF9 insect cells (baculovirus), purified (IgG Sepharose, TEV elution, Superose 6 SEC); not shown: His6, N-terminal, cleaved; ZZ, N-terminal, cleaved; SNAP, C-terminal, kept
B2: NuMA MTBD2 (domain or fragment, human, UniProt Q14980 2002-2115, looked up)
chain: ESKKATSCFPRPMTPRDRHEGRKQSTTEAQKKAAPASTKQADRRQSMAFSILNTPKKLGNSLLRRGASKKALSKASPNTRSGTRRSPRIATTTASAATAAAIGATPRAKGKAKH
notes: NuMA, human, a.a; 2002-2115; source: SF9 insect cells (baculovirus), purified (IgG Sepharose, TEV elution, Superdex 200 SEC); not shown: His6, N-terminal, cleaved; ZZ, N-terminal, cleaved; MBP, N-terminal, cleaved; mNG, C-terminal, kept
B3: NuMA 1-705 (domain or fragment, human, UniProt Q14980 1-705, looked up)
chain: MTLHATRGAALLSWVNSLHVADPVEAVLQLQDCSIFIKIIDRIHGTEEGQQILKQPVSERLDFVCSFLQKNRKHPSSPECLVSAQKVLEGSELELAKMTMLLLYHSTMSSKSPRDWEQFEYKIQAELAVILKFVLDHEDGLNLNEDLENFLQKAPVPSTCSSTFPEELSPPSHQAKREIRFLELQKVASSSSGNNFLSGSPASPMGDILQTPQFQMRRLKKQLADERSNRDELELELAENRKLLTEKDAQIAMMQQRIDRLALLNEKQAASPLEPKELEELRDKNESLTMRLHETLKQCQDLKTEKSQMDRKINQLSEENGDLSFKLREFASHLQQLQDALNELTEEHSKATQEWLEKQAQLEKELSAALQDKKCLEEKNEILQGKLSQLEEHLSQLQDNPPQEKGEVLGDVLQLETLKQEAATLAANNTQLQARVEMLETERGQQEAKLLAERGHFEEEKQQLSSLITDLQSSISNLSQAKEELEQASQAHGARLTAQVASLTSELTTLNATIQQQDQELAGLKQQAKEKQAQLAQTLQQQEQASQGLRHQVEQLSSSLKQKEQQLKEVAEKQEATRQDHAQQLATAAEEREASLRERDAALKQLEALEKEKAAKLEILQQQLQVANEARDSAQTSVTQAQREKAELSRKVEELQACVETARQEQHEAQAQVAELELQLRSEQQKATEKERVAQEKDQLQEQLQ
modifications: LD555 dye on the SNAP tag
notes: NuMA (nuclear mitotic apparatus protein), human, a.a; Construct used for the cryo-EM structure of the DDN complex; also called NuMA N-terminal construct; source: SF9 insect cells (baculovirus), purified (IgG Sepharose, TEV elution, Superose 6 SEC); not shown: His6, N-terminal, cleaved; ZZ, N-terminal, cleaved; SNAP, C-terminal, kept
B4: NuMA 1-505 (domain or fragment, human, UniProt Q14980 1-505, looked up)
chain: MTLHATRGAALLSWVNSLHVADPVEAVLQLQDCSIFIKIIDRIHGTEEGQQILKQPVSERLDFVCSFLQKNRKHPSSPECLVSAQKVLEGSELELAKMTMLLLYHSTMSSKSPRDWEQFEYKIQAELAVILKFVLDHEDGLNLNEDLENFLQKAPVPSTCSSTFPEELSPPSHQAKREIRFLELQKVASSSSGNNFLSGSPASPMGDILQTPQFQMRRLKKQLADERSNRDELELELAENRKLLTEKDAQIAMMQQRIDRLALLNEKQAASPLEPKELEELRDKNESLTMRLHETLKQCQDLKTEKSQMDRKINQLSEENGDLSFKLREFASHLQQLQDALNELTEEHSKATQEWLEKQAQLEKELSAALQDKKCLEEKNEILQGKLSQLEEHLSQLQDNPPQEKGEVLGDVLQLETLKQEAATLAANNTQLQARVEMLETERGQQEAKLLAERGHFEEEKQQLSSLITDLQSSISNLSQAKEELEQASQAHGARLTAQVASLTS
modifications: LD555 dye on the SNAP tag
notes: NuMA (nuclear mitotic apparatus protein), human, a.a; The methods say 'C-terminal SNAP or mNG'; also called NuMA N-terminal construct; source: SF9 insect cells (baculovirus), purified (IgG Sepharose, TEV elution, Superose 6 SEC); not shown: His6, N-terminal, cleaved; ZZ, N-terminal, cleaved; SNAP, C-terminal, kept
B5: TPR domain of LGN (a.a. 1-409) (domain or fragment, human, UniProt P81274 1-409, looked up)
chain: MEENLISMREDHSFHVRYRMEASCLELALEGERLCKSGDCRAGVSFFEAAVQVGTEDLKTLSAIYSQLGNAYFYLHDYAKALEYHHHDLTLARTIGDQLGEAKASGNLGNTLKVLGNFDEAIVCCQRHLDISRELNDKVGEARALYNLGNVYHAKGKSFGCPGPQDVGEFPEEVRDALQAAVDFYEENLSLVTALGDRAAQGRAFGNLGNTHYLLGNFRDAVIAHEQRLLIAKEFGDKAAERRAYSNLGNAYIFLGEFETASEYYKKTLLLARQLKDRAVEAQSCYSLGNTYTLLQDYEKAIDYHLKHLAIAQELNDRIGEGRACWSLGNAYTALGNHDQAMHFAEKHLEISREVGDKSGELTARLNLSDLQMVLGLSYSTNNSIMSENTEIDSSLNGVRPKLGRRHSM
modifications: LD655 dye on the SNAP tag (unlabeled LGN in some assays)
notes: LGN, human, N-terminal TPR domain a.a; 1-409; cloned from pTK47_mCherry-LGN-Hardened; The methods say 'C-terminal SNAP or mNG'; the LD655 labelling implies SNAP; also called LGN TPR; source: SF9 insect cells (baculovirus), purified (IgG Sepharose, TEV elution, Resource-Q ion exchange); not shown: His6, N-terminal, cleaved; ZZ, N-terminal, cleaved; SNAP, C-terminal, kept
B6: NuMA C (domain or fragment, human, UniProt Q14980 1700-2115, looked up)
chain: FQVATDALKSREPQAKPQLDLSIDSLDLSCEEGTPLSITSKLPRTQPDGTSVPGEPASPISQRLPPKVESLESLYFTPIPARSQAPLESSLDSLGDVFLDSGRKTRSARRRTTQIINITMTKKLDVEEPDSANSSFYSTRSAPASQASLRATSSTQSLARLGSPDYGNSALLSLPGYRPTTRSSARRSQAGVSSGAPPGRNSFYMGTCQDEPEQLDDWNRIAELQQRNRVCPPHLKTCYPLESRPSLSLGTITDEEMKTGDPQETLRRASMQPIQIAEGTGITTRQQRKRVSLEPHQGPGTPESKKATSCFPRPMTPRDRHEGRKQSTTEAQKKAAPASTKQADRRQSMAFSILNTPKKLGNSLLRRGASKKALSKASPNTRSGTRRSPRIATTTASAATAAAIGATPRAKGKAKH
notes: NuMA, human, C-terminal region a.a; 1700-2115; also called NuMA C-terminus; NuMA C-mNG; source: SF9 insect cells (baculovirus), purified (IgG Sepharose, TEV elution, Superdex 200 SEC); not shown: His6, N-terminal, cleaved; ZZ, N-terminal, cleaved; MBP, N-terminal, cleaved; mNG, C-terminal, kept

Series [1] concerns the molecule itself. The series can be described thus: mass photometry; single protein diluted to 5-20 nM in 50 mM HEPES pH 7.4, 150 mM NaCl, 1 mM EGTA, 10% glycerol; TwoMP mass photometer.
The target of series [2] is microtubules (pig brain tubulin) (pig, UniProt P02550 1-451; Q767L7 1-444, Cy3 or Cy5 and biotin labels on a fraction of the tubulin | Cy3 or Cy5 and biotin labels on a fraction of the tubulin). The series can be described thus: TIRF imaging of fluorescent protein on surface-immobilised microtubules; Cy3/biotin taxol-stabilised MTs immobilised by streptavidin; serial dilutions of mNG-fused NuMA constructs in MBC buffer (30 mM HEPES pH 7.4, 5 mM MgSO4, 1 mM EGTA, 100 mM KAc, casein, pluronic, methylcellulose); apparent Kd from a fit to a binding isotherm. The following applies: both partners purified.

The series “NuMA C” deals with B6. Kind of series: mass photometry; NuMA C and LGN mixed in equimolar (20 nM) concentrations; mass photometry buffer. The following applies: both partners purified.

In general, stoichiometry N refers to the number of molecules, sites or subunits per partner or assembly. Consider B1, for which, in series [1], the “stoichiometry N” value stood at 2.

With B2, in series [2], the Kd is 28 nM.

Take B3: in series [1], the “stoichiometry N” value is 2.

Turning to B4, in series [1], the “stoichiometry N” value was 2.

As to B5, the “stoichiometry N” value with NuMA C is 3 LGN per 3 NuMA C.

In the case of B6, the Kd in series [2] was determined as 390 nM.
